Molecular target: S. cerevisiae ubiquitin (S. cerevisiae, UniProt P0CG63 1-76)
Test: NMR titration

Chain of S. cerevisiae ubiquitin (P0CG63 1-76): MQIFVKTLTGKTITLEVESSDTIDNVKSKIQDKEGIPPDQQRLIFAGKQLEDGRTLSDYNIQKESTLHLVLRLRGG

B1: UBZ domain of S. cerevisiae polymerase η (domain or fragment)
chain: TTSSKADEKTPKLECCKYQVTFTDQKALQEHADYHLALKLSEGLNGAEESSKNLSFGEKRLLF
  binding result: binds
